Reduction of CD33+ cells (%), AbTCR-CSR #34 T cells (with anti-CD33 CSR), primary AML 120B (HLA-A*02:01 -) data for one molecule are collected here from patent US20260226173A1, “COMPOSITIONS INCLUDING ANTI-WT-1 ANTIBODIES & ANTIGEN BINDING FRAGMENTS AND USES THEREOF” (Memorial Sloan-Kettering Cancer Center, priority 2023, published 2026).

The target in this experiment is HLA-A2-negative cells (HL-60, K562, primary AML 120B, normal cells of HLA-A2-negative donors). Briefly: cell-based or functional assay.

B1: ESK2 caTCR clone #34 (AbTCR), expressed on primary T cells (protein)
VH: QVQLVQSGTEVRKPGASLKVSCTTSGYIFTGYYIHWVRQVPGQGLEWMGWINPNSGVTEFAQGFQGRITMTRDTSTSTVYMELSRLTSDDTAVYYCAREGVWGYYDSWGQGTLVTVSS
VL: SSELTQDPAVSVALGQTVRITCQGDSLRSYYASWYQQKPGQAPVLVIYDKNNRPSGIPDRFSGSSSGNTASLTITGAQAEDEADYYCNSRDSSGNHHVVFGGGTKLTVLG
With B1, the Reduction of CD33+ cells (%), AbTCR-CSR #34 T cells (with anti-CD33 CSR), primary AML 120B (HLA-A*02:01 -) stood at 2.3%.
